Test results from publication doi:10.1101/681007 (bioRxiv, 2019).

Legend:
[1] = biological target: Human TAp63α (aa10-616, TEV site inserted at aa570 and V599M) (human); assay: SEC
[2] = biological target: the molecule itself; assay: native gel or EMSA

Row | Molecule | stoichiometry N [1] | stoichiometry N [2]
1 | Human TAp63α (aa10-616, TEV site inserted at aa570 and V599M) (natural protein) | 2 | –
2 | TAp63α, endogenous in mouse ovaries, untreated (closed dimeric form) (natural protein, mouse (endogenous in ovaries), UniProt O88898-1 40-680, looked up) MSQSTQTSEFLSPEVFQHIWDFLEQPICSVQPIELNFVDEPSENGATNKIEISMDCIRMQDSDLSDPMWPQYTNLGLLNSMDQQIQNGSSSTSPYNTDHAQNSVTAPSPYAQPSSTFDALSPSPAIPSNTDYPGPHSFDVSFQQSSTAKSATWTYSTELKKLYCQIAKTCPIQIKVMTPPPQGAVIRAMPVYKKAEHVTEVVKRCPNHELSREFNEGQIAPPSHLIRVEGNSHAQYVEDPITGRQSVLVPYEPPQVGTEFTTVLYNFMCNSSCVGGMNRRPILIIVTLETRDGQVLGRRCFEARICACPGRDRKADEDSIRKQQVSDSAKNGDGTKRPFRQNTHGIQMTSIKKRRSPDDELLYLPVRGRETYEMLLKIKESLELMQYLPQHTIETYRQQQQQQHQHLLQKQTSMQSQSSYGNSSPPLNKMNSMNKLPSVSQLINPQQRNALTPTTMPEGMGANIPMMGTHMPMAGDMNGLSPTQALPPPLSMPSTSHCTPPPPYPTDCSIVSFLARLGCSSCLDYFTTQGLTTIYQIEHYSMDDLASLKIPEQFRHAIWKGILDHRQLHDFSSPPHLLRTPSGASTVSVGSSETRGERVIDAVRFTLRQTISFPPRDEWNDFNFDMDSRRNKQQRIKEEGE | – | 2
3 | TAp63α, endogenous in mouse ovaries, phosphorylated after 0.5 Gy γ-irradiation (active tetrameric form) (natural protein, mouse (endogenous in ovaries), UniProt O88898-1 40-680, looked up, phosphorylated (phosphorylation dependent mobility shift on SDS-PAGE); the sites were not determined in this experiment) MSQSTQTSEFLSPEVFQHIWDFLEQPICSVQPIELNFVDEPSENGATNKIEISMDCIRMQDSDLSDPMWPQYTNLGLLNSMDQQIQNGSSSTSPYNTDHAQNSVTAPSPYAQPSSTFDALSPSPAIPSNTDYPGPHSFDVSFQQSSTAKSATWTYSTELKKLYCQIAKTCPIQIKVMTPPPQGAVIRAMPVYKKAEHVTEVVKRCPNHELSREFNEGQIAPPSHLIRVEGNSHAQYVEDPITGRQSVLVPYEPPQVGTEFTTVLYNFMCNSSCVGGMNRRPILIIVTLETRDGQVLGRRCFEARICACPGRDRKADEDSIRKQQVSDSAKNGDGTKRPFRQNTHGIQMTSIKKRRSPDDELLYLPVRGRETYEMLLKIKESLELMQYLPQHTIETYRQQQQQQHQHLLQKQTSMQSQSSYGNSSPPLNKMNSMNKLPSVSQLINPQQRNALTPTTMPEGMGANIPMMGTHMPMAGDMNGLSPTQALPPPLSMPSTSHCTPPPPYPTDCSIVSFLARLGCSSCLDYFTTQGLTTIYQIEHYSMDDLASLKIPEQFRHAIWKGILDHRQLHDFSSPPHLLRTPSGASTVSVGSSETRGERVIDAVRFTLRQTISFPPRDEWNDFNFDMDSRRNKQQRIKEEGE | – | 4
